These results are taken from US20220389118A1 (Chugai, published 2022).

In test [1] the target is T1, human FcγRIa extracellular domain with C-terminal His tag (human, UniProt P12314 16-292).
T1 construct: extracellular domain
Put plainly: SPR (Biacore).

For test [2], the target named is T2, human FcγRIIa type R extracellular domain with C-terminal His tag (human, UniProt P12318 34-217).
T2 construct: extracellular domain; also called FcγRIIaR; FcγRIIa(R)
T2 sequence (looked up): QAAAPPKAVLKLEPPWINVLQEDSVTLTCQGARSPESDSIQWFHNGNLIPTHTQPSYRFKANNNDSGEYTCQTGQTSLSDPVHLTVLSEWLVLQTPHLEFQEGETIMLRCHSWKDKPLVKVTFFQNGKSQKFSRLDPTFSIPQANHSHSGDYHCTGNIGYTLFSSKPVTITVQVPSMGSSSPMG
The test is described as follows: SPR (Biacore).

For test [3], the target named is T3, human FcγRIIb extracellular domain with C-terminal His tag (human, UniProt P31994 43-217).
T3 construct: extracellular domain
T3 sequence (looked up): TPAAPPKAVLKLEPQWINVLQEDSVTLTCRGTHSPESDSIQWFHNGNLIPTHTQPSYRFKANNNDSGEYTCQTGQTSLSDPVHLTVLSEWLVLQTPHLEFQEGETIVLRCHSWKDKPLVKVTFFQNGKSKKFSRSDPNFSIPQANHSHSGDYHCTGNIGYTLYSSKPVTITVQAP
Put plainly: SPR (Biacore). On the technique in general: In SPR one partner is held on a chip, and binding of the other changes the refractive index at the surface.

The target in test [4] is T3, human FcγRIIb extracellular domain with …. Put plainly: SPR (Biacore), ratio of KDs.
Test [5] has as its target T2, human FcγRIIa type R extracellular …. Put plainly: SPR (Biacore), parent IL6R-B3/IL6R-L.
For test [6], the target named is T3, human FcγRIIb extracellular domain with …. The test is described as follows: SPR (Biacore), parent IL6R-B3/IL6R-L.
Test [7] concerns the target T4, human FcγRIIb extracellular domain with C-terminal His tag (human, UniProt P31994 43-217).
T4 construct: extracellular domain; also called FcgRIIb
T4 sequence (looked up): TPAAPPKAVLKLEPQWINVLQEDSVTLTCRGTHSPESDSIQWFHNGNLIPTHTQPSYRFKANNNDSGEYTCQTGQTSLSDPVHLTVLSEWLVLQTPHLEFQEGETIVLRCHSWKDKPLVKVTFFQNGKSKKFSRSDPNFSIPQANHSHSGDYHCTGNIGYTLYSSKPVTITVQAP
The test is described as follows: SPR (Biacore), antibody captured, FcγR as analyte.

T1 sequence (P12314 16-292): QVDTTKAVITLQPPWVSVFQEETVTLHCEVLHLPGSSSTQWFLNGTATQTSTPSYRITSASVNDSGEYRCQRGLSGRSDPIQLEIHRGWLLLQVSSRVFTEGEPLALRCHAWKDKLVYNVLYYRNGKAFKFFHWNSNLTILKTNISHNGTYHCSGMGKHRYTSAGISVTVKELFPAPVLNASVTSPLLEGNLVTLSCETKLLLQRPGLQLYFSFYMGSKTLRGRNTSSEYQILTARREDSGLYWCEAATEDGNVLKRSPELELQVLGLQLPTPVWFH

B1: IL6R-BP508/IL6R-L (antibody, human IgG1, kappa)
heavy: QVQLQESGPGLVKPSETLSLTCAVSGHSISHDHAWSWVRQPPGEGLEWIGFISYSGITNYNPSLQGRVTISRDNSKNTLYLQMNSLRAEDTAVYYCARSLARTTAMDYWGEGTLVTVSSASTKGPSVFPLAPSSKSTSGGTAALGCLVKDYFPEPVTVSWNSGALTSGVHTFPAVLQSSGLYSLSSVVTVPSSSLGTQTYICNVNHKPSNTKVDKKVEPKSCDKTHTCPPCPAPDLLGDDSVFLFPPKPKDTLMISRTPEVTCVVIDVAEEDGPVKFNWYVDGVEVHNAKTKPREEQDNSTYRVVSVLTVLHQDWLNGKEYKCKVSNKALPAPIEKTISKAKGQPREPQVYTLPPSRDELTKNQVSLTCLVKGFYPSDIAVEWESNGQPENNYKTTPPVLDSDGSFFLYSKLTVDKSRWQQGNVFSCSVMHEALHNHYTQESLSLSP
light: not shown
notes: copies: 2 + 2
On to B1, for which the Kd (commonly a measure of binding affinity in units of concentration) in test [1] came out at 1.4 nM; in test [2], 540 nM; in test [3], 21 nM. Further, in test [4], the “KD(IIaH)/KD(IIb)” value came to 962. Further, the “KD(IIaR)/KD(IIb)” value in test [4] was found to be 26. Moreover, the “KD(IIaR) parent/KD(IIaR) altered polypeptide” value in test [5] came out at 2. Further, in test [6], the “KD(IIb) parent/KD(IIb) altered polypeptide” value was determined as 149.

B2: IL6R-BP112/IL6R-L (antibody, human IgG1, kappa)
heavy: QVQLQESGPGLVKPSETLSLTCAVSGHSISHDHAWSWVRQPPGEGLEWIGFISYSGITNYNPSLQGRVTISRDNSKNTLYLQMNSLRAEDTAVYYCARSLARTTAMDYWGEGTLVTVSSASTKGPSVFPLAPSSKSTSGGTAALGCLVKDYFPEPVTVSWNSGALTSGVHTFPAVLQSSGLYSLSSVVTVPSSSLGTQTYICNVNHKPSNTKVDKKVEPKSCDKTHTCPPCPAPELLGGDSVFLFPPKPKDTLMISRTPEVTCVVVDVSHEDGEVKFNWYVDGVEVHNAKTKPREEQYNSTYRVVSVLTVLHQDWLNGKEYKCKVSNKALPAPIEKTISKAKGQPREPQVYTLPPSRDELTKNQVSLTCLVKGFYPSDIAVEWESNGQPENNYKTTPPVLDSDGSFFLYSKLTVDKSRWQQGNVFSCSVMHEALHNHYTQESLSLSP
light: not shown
notes: IgG1 type
With B2, the “KD(IIb) of parent polypeptide/KD(IIb) of altered polypeptide” value (from here on “KD(IIb) … of altered polypeptide”) in test [7] came out at 9.7 fold vs IL6R-B3/IL6R-L.

B3: IL6R-BP509/IL6R-L (antibody, human IgG1, kappa)
heavy: QVQLQESGPGLVKPSETLSLTCAVSGHSISHDHAWSWVRQPPGEGLEWIGFISYSGITNYNPSLQGRVTISRDNSKNTLYLQMNSLRAEDTAVYYCARSLARTTAMDYWGEGTLVTVSSASTKGPSVFPLAPSSKSTSGGTAALGCLVKDYFPEPVTVSWNSGALTSGVHTFPAVLQSSGLYSLSSVVTVPSSSLGTQTYICNVNHKPSNTKVDKKVEPKSCDKTHTCPPCPAPDLLGDDSVFLFPPKPKDTLMISRTPEVTCVVIDVAEEDGDVKFNWYVDGVEVHNAKTKPREEQDNSTYRVVSVLTVLHQDWLNGKEYKCKVSNKALPAPIEKTISKAKGQPREPQVYTLPPSRDELTKNQVSLTCLVKGFYPSDIAVEWESNGQPENNYKTTPPVLDSDGSFFLYSKLTVDKSRWQQGNVFSCSVMHEALHNHYTQESLSLSP
light: not shown
notes: copies: 2 + 2
For B3, the values for the dissociation constant (Kd) in test [1], in test [2] and in test [3] were 1.1 nM, 520 nM and 18 nM, respectively. Also, in test [4], the “KD(IIaH)/KD(IIb)” value was 444. The “KD(IIaR)/KD(IIb)” value in test [4] worked out at 29.2. For the same molecule, in test [5], the “KD(IIaR) parent/KD(IIaR) altered polypeptide” value came out at 2.1. Moreover, in test [6], the “KD(IIb) parent/KD(IIb) altered polypeptide” value came to 174.

B4: IL6R-2B002/IL6R-L (antibody, human IgG1, kappa)
heavy: QVQLQESGPGLVKPSETLSLTCAVSGHSISHDHAWSWVRQPPGEGLEWIGFISYSGITNYNPSLQGRVTISRDNSKNTLYLQMNSLRAEDTAVYYCARSLARTTAMDYWGEGTLVTVSSASTKGPSVFPLAPSSKSTSGGTAALGCLVKDYFPEPVTVSWNSGALTSGVHTFPAVLQSSGLYSLSSVVTVPSSSLGTQTYICNVNHKPSNTKVDKKVEPKSCDKTHTCPPCPAPDLLGGDSVFLFPPKPKDTLMISRTPEVTCVVVDVSHEDPEVKFNWYVDGVEVHNAKTKPREEQYNSTYRVVSVLTVLHQDWLNGKEYKCKVSNKALPAPIEKTISKAKGQPREPQVYTLPPSRDELTKNQVSLTCLVKGFYPSDIAVEWESNGQPENNYKTTPPVLDSDGSFFLYSKLTVDKSRWQQGNVFSCSVMHEALHNHYTQESLSLSP
light: not shown
notes: IgG1 type
Turning to B4, in test [7], the “KD(IIb) … of altered polypeptide” value is 3.3 fold vs IL6R-B3/IL6R-L.

B5: IL6R-2B169/IL6R-L (antibody, human IgG1, kappa)
heavy: QVQLQESGPGLVKPSETLSLTCAVSGHSISHDHAWSWVRQPPGEGLEWIGFISYSGITNYNPSLQGRVTISRDNSKNTLYLQMNSLRAEDTAVYYCARSLARTTAMDYWGEGTLVTVSSASTKGPSVFPLAPSSKSTSGGTAALGCLVKDYFPEPVTVSWNSGALTSGVHTFPAVLQSSGLYSLSSVVTVPSSSLGTQTYICNVNHKPSNTKVDKKVEPKSCDKTHTCPPCPAPELLGGDSVFLFPPKPKDTLMISRTPEVTCVVVDVSHEDPEVKFNWYVDGVEVHNAKTKPREEQYNSTYRVVSVLTVLHQDWLNGKEYKCKISNKALPAPIEKTISKAKGQPREPQVYTLPPSRDELTKNQVSLTCLVKGFYPSDIAVEWESNGQPENNYKTTPPVLDSDGSFFLYSKLTVDKSRWQQGNVFSCSVMHEALHNHYTQESLSLSP
light: not shown
notes: IgG1 type
As to B5, in test [7], the “KD(IIb) … of altered polypeptide” value came to 2.6 fold vs IL6R-B3/IL6R-L.

B6: IL6R-2B128/IL6R-L (antibody, human IgG1, kappa)
heavy: QVQLQESGPGLVKPSETLSLTCAVSGHSISHDHAWSWVRQPPGEGLEWIGFISYSGITNYNPSLQGRVTISRDNSKNTLYLQMNSLRAEDTAVYYCARSLARTTAMDYWGEGTLVTVSSASTKGPSVFPLAPSSKSTSGGTAALGCLVKDYFPEPVTVSWNSGALTSGVHTFPAVLQSSGLYSLSSVVTVPSSSLGTQTYICNVNHKPSNTKVDKKVEPKSCDKTHTCPPCPAPELLGGDSVFLFPPKPKDTLMISRTPEVTCVVVDVSHEDPEVKFNWYVDGVEVHNAKTKPREEQDNSTYRVVSVLTVLHQDWLNGKEYKCKVSNKALPAPIEKTISKAKGQPREPQVYTLPPSRDELTKNQVSLTCLVKGFYPSDIAVEWESNGQPENNYKTTPPVLDSDGSFFLYSKLTVDKSRWQQGNVFSCSVMHEALHNHYTQESLSLSP
light: not shown
notes: IgG1 type
As for B6, in test [7], the “KD(IIb) … of altered polypeptide” value is 2.1 fold vs IL6R-B3/IL6R-L.

B7: IL6R-BP110/IL6R-L (antibody, human IgG1, kappa)
heavy: QVQLQESGPGLVKPSETLSLTCAVSGHSISHDHAWSWVRQPPGEGLEWIGFISYSGITNYNPSLQGRVTISRDNSKNTLYLQMNSLRAEDTAVYYCARSLARTTAMDYWGEGTLVTVSSASTKGPSVFPLAPSSKSTSGGTAALGCLVKDYFPEPVTVSWNSGALTSGVHTFPAVLQSSGLYSLSSVVTVPSSSLGTQTYICNVNHKPSNTKVDKKVEPKSCDKTHTCPPCPAPELLGGDSVFLFPPKPKDTLMISRTPEVTCVVVDVSNEDPEVKFNWYVDGVEVHNAKTKPREEQYNSTYRVVSVLTVLHQDWLNGKEYKCKVSNKALPAPIEKTISKAKGQPREPQVYTLPPSRDELTKNQVSLTCLVKGFYPSDIAVEWESNGQPENNYKTTPPVLDSDGSFFLYSKLTVDKSRWQQGNVFSCSVMHEALHNHYTQESLSLSP
light: not shown
notes: IgG1 type
As to B7, in test [7], the “KD(IIb) … of altered polypeptide” value was found to be 2.1 fold vs IL6R-B3/IL6R-L.

B8: IL6R-BP549/IL6R-L (antibody, human IgG1, kappa)
heavy: QVQLQESGPGLVKPSETLSLTCAVSGHSISHDHAWSWVRQPPGEGLEWIGFISYSGITNYNPSLQGRVTISRDNSKNTLYLQMNSLRAEDTAVYYCARSLARTTAMDYWGEGTLVTVSSASTKGPSVFPLAPSSKSTSGGTAALGCLVKDYFPEPVTVSWNSGALTSGVHTFPAVLQSSGLYSLSSVVTVPSSSLGTQTYICNVNHKPSNTKVDKKVEPKSCDKTHTCPPCPAPELLGDDSVFLFPPKPKDTLMISRTPEVTCVVVDVGEEDGEVKFNWYVDGVEVHNAKTKPREEQYNSTYRVVSVLTVLHQDWLNGKEYKCKVSNKALPRPIEKTISKAKGQPREPQVYTLPPSRDELTKNQVSLTCLVKGFYPSDIAVEWESNGQPENNYKTTPPVLDSDGSFFLYSKLTVDKSRWQQGNVFSCSVMHEALHNHYTQESLSLSP
light: not shown
notes: copies: 2 + 2
B8: the Kd in test [1] came to 18 nM; in test [2] it was 570 nM; in test [3], 16 nM. For the same molecule, in test [4], the “KD(IIaH)/KD(IIb)” value came to 696. In test [4], the “KD(IIaR)/KD(IIb)” value turned out to be 35.9. Also, the “KD(IIaR) parent/KD(IIaR) altered polypeptide” value in test [5] came to 1.9. For the same molecule, the “KD(IIb) parent/KD(IIb) altered polypeptide” value in test [6] was 196.
